According to patent US20130209454A1:

Legend:
Test in all cases: cell-based or functional assay
[1] = biological target: HIV-1 Env of strain 231966.c02 (HIV-1)
[2] = biological target: Env of HIV-1 strain 6240_08_TA5_4622 (HIV-1)
[3] = biological target: HIV-1 Env of strain Du156.12 (HIV-1)
[4] = biological target: HIV-1 Env of strain 3301.v1.c24 (HIV-1)
[5] = biological target: HIV-1 Env of strain ZM214M.PL15 (HIV-1)
[6] = biological target: Env of HIV-1 strain 3817.v2.c59 (HIV-1)
[7] = biological target: HIV-1 Env of strain SC422661.8 (HIV-1)
[8] = biological target: Env of HIV-1 strain A07412M1.vrc12 (HIV-1)
[9] = biological target: HIV-1 Env of strain Ce0682_E4 (HIV-1)
[10] = biological target: Env of HIV-1 strain X1193_c1 (HIV-1)
[11] = biological target: HIV-1 Env of strain REJO4541.67 (HIV-1)
[12] = biological target: Env of HIV-1 strain C3347.c11 (HIV-1)
[13] = biological target: HIV-1 Env of strain 6545.v4.c1 (HIV-1)
[14] = biological target: HIV-1 Env of strain Ce703010054_2A2 (HIV-1)
[15] = biological target: Env of HIV-1 strain X2088_c9 (HIV-1)
[16] = biological target: HIV-1 Env of strain 6240_08_TA5_4622 (HIV-1)
[17] = biological target: Env of HIV-1 strain BJOX028000.10.3 (HIV-1)
[18] = biological target: Env of HIV-1 strain CNE19 (HIV-1)
[19] = biological target: HIV-1 Env of strain T278-50 (HIV-1)
[20] = biological target: Env of HIV-1 strain HIV-16055-2.3 (HIV-1)
[21] = biological target: HIV-1 Env of strain 6540.v4.c1 (HIV-1)
[22] = biological target: HIV-1 Env of strain C2101.c01 (HIV-1)
[23] = biological target: Env of HIV-1 strain Du422.1 (HIV-1)
[24] = biological target: Env of HIV-1 strain 246F C1G (HIV-1)
[25] = biological target: HIV-1 Env of strain TRJO4551.58 (HIV-1)
[26] = biological target: Env of HIV-1 strain 3016.v5.c45 (HIV-1)
[27] = biological target: HIV-1 Env of strain CNE20 (HIV-1)
[28] = biological target: Env of HIV-1 strain CNE53 (HIV-1)
[29] = biological target: Env of HIV-1 strain Ce703010054_2A2 (HIV-1)
[30] = biological target: Env of HIV-1 strain Q769.d22 (HIV-1)
[31] = biological target: Env of HIV-1 strain Ce1086_B2 (HIV-1)
[32] = biological target: HIV-1 Env of strain X1632_S2_B10 (HIV-1)
[33] = biological target: Env of HIV-1 strain 0815.v3.c3 (HIV-1)
[34] = biological target: Env of HIV-1 strain 620345.c01 (HIV-1)
[35] = biological target: Env of HIV-1 strain Ce704809221_1B3 (HIV-1)
[36] = biological target: HIV-1 Env of strain 1394C9G1(Rev-) (HIV-1)
[37] = biological target: HIV-1 Env of strain 7030102001E5(Rev) (HIV-1)
[38] = biological target: Env of HIV-1 strain BJOX010000.06.2 (HIV-1)
[39] = biological target: Env of HIV-1 strain 3103.v3.c10 (HIV-1)
[40] = biological target: HIV-1 Env of strain 6480.v4.c25 (HIV-1)
[41] = biological target: Env of HIV-1 strain TRJO4551.58 (HIV-1)
[42] = biological target: Env of HIV-1 strain P1981_C5_3 (HIV-1)
[43] = biological target: Env of HIV-1 strain 191084 B7-19 (HIV-1)
[44] = biological target: HIV-1 Env of strain 3817.v2.c59 (HIV-1)
[45] = biological target: HIV-1 Env of strain 928-28 (HIV-1)
[46] = biological target: HIV-1 Env of strain CNE17 (HIV-1)
[47] = biological target: Env of HIV-1 strain 249M B10 (HIV-1)
[48] = biological target: HIV-1 Env of strain C3347.c11 (HIV-1)
[49] = biological target: Env of HIV-1 strain T251-18 (HIV-1)
[50] = biological target: HIV-1 Env of strain MS208.A1 (HIV-1)
[51] = biological target: Env of HIV-1 strain X2131_C1_B5 (HIV-1)

NIH45-46 (antibody), sequence (VH): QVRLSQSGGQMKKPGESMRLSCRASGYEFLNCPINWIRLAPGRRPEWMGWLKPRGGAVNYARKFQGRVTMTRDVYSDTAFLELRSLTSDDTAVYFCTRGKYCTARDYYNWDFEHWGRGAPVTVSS
NIH45-46 (antibody), sequence (V domain): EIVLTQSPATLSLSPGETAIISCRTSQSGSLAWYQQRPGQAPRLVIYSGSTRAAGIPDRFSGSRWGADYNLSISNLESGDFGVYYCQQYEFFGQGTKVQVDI

NIH45-46 (antibody)
IC50, pseudovirus neutralization [1]: 1.64 µg/mL
IC80 [2]: 1.55 µg/mL
IC50, pseudovirus neutralization [3]: 0.02 µg/mL
IC50, pseudovirus neutralization [4]: 0.009 µg/mL
IC50, pseudovirus neutralization [5]: 0.17 µg/mL
IC80 [6]: > 50 µg/mL
IC50, pseudovirus neutralization [7]: 0.06 µg/mL
IC80 [8]: 0.13 µg/mL
IC50, pseudovirus neutralization [9]: 0.054 µg/mL
IC80 [10]: 0.064 µg/mL
IC50, pseudovirus neutralization [11]: 0.014 µg/mL
IC80 [12]: 0.094 µg/mL
IC50, pseudovirus neutralization [13]: > 50 µg/mL
IC50, pseudovirus neutralization [14]: 0.159 µg/mL
IC80 [15]: > 50 µg/mL
IC50, pseudovirus neutralization [16]: 0.44 µg/mL
IC80 [17]: > 50 µg/mL
IC80 [18]: 0.37 µg/mL
IC50, pseudovirus neutralization [19]: > 50 µg/mL
IC80 [20]: 0.06 µg/mL
IC50, pseudovirus neutralization [21]: > 50 µg/mL
IC50, pseudovirus neutralization [22]: 4.24 µg/mL
IC80 [23]: > 50 µg/mL
IC80 [24]: > 50 µg/mL
IC50, pseudovirus neutralization [25]: 0.04 µg/mL
IC80 [26]: > 50 µg/mL
IC50, pseudovirus neutralization [27]: 7.83 µg/mL
IC80 [28]: 0.039 µg/mL
IC80 [29]: 0.538 µg/mL
IC80 [30]: 0.033 µg/mL
IC80 [31]: 0.28 µg/mL
IC50, pseudovirus neutralization [32]: 0.07 µg/mL
IC80 [33]: 0.052 µg/mL
IC80 [34]: > 50 µg/mL
IC80 [35]: 0.88 µg/mL
IC50, pseudovirus neutralization [36]: 0.09 µg/mL
IC50, pseudovirus neutralization [37]: 0.14 µg/mL
IC80 [38]: 6.37 µg/mL
IC80 [39]: 6.15 µg/mL
IC50, pseudovirus neutralization [40]: 0.032 µg/mL
IC80 [41]: 0.13 µg/mL
IC80 [42]: 0.24 µg/mL
IC80 [43]: 0.07 µg/mL
IC50, pseudovirus neutralization [44]: > 50 µg/mL
IC50, pseudovirus neutralization [45]: 0.23 µg/mL
IC50, pseudovirus neutralization [46]: 0.261 µg/mL
IC80 [47]: 0.17 µg/mL
IC50, pseudovirus neutralization [48]: 0.029 µg/mL
IC80 [49]: 3.68 µg/mL
IC50, pseudovirus neutralization [50]: 0.09 µg/mL
IC80 [51]: 0.88 µg/mL
